Data taken from US20120219498A1 (RAMOT AT TEL AVIV UNIVERSITY, published 2012).

B1: ADOPep1 (peptide)
peptide: HWRRAHLLPRLP
notes: Unlabelled synthetic peptide (SynPep); also called non-biotinylated ADOPep1

Assays:
[1] = target: T1, glucose-regulated protein (GRP78) (Homo sapiens, UniProt P11021 19-654); experiment: cell ELISA on endothelial cells, peptide 2 hours, then competitor anti-GRP78 antibody at 2 ug/ml
T1 construct: Endogenous GRP78: on the membrane of human umbilical vein endothelial cells (HUVEC) or tumor cell lines in FACS and cell ELISA; from HUVEC lysate in the immunoprecipitation and Western blot experiments; also called GRP78 receptor; ADOPeps receptor
T1 sequence (P11021 19-654 limits assumed): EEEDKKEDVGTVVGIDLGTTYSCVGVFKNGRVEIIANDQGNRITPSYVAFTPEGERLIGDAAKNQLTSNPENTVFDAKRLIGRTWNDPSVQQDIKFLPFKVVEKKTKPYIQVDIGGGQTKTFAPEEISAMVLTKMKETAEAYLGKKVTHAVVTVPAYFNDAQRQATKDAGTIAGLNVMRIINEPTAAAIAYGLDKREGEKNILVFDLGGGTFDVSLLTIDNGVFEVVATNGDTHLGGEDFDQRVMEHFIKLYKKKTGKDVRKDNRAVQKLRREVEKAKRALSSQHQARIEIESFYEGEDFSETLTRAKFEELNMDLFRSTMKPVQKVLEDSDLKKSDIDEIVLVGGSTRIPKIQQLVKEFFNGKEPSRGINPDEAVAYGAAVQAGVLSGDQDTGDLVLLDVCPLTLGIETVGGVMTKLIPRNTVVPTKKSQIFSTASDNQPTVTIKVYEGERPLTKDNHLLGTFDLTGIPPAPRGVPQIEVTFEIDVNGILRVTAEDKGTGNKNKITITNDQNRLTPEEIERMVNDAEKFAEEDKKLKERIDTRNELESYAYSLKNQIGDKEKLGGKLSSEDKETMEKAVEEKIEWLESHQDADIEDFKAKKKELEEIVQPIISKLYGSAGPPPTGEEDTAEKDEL
Procedure: Endothelial cells were incubated for 2 hours with increasing concentrations of ADOPeps, following which the cells were incubated for another 1 hour with the 2 μg/ml of anti-GRP78 antibody and the amount of bound antibody on EC was detected using an ELISA reader.
Endothelial cells (20,000 per well) were seeded in 96 well plates for 24 hours in the presence of the complete medium. Plates were washed with PBS over night and rehydrated with PBS, 0.1% Na Azide and 5% FCS. ADOPep1, ADOPep2 and ADOPep3 were added to washed plates for 2 hours at room temperature at concentrations of 0.01, 0.1 and 1 microgram per ml. Anti-GRP78 antibody (goat polyclona IgG, Santa Cruz Biotechnology, Calif., USA) was added to the plates for 1 hour at room temperature at a concentration of 2 micrograms/ml per well. After washing, bound anti-GRP78 antibody was detected by incubation with anti-goat IgG Peroxidase conjugated (Jackson Immuneresearch Laboratories, PA, USA). After 5 washes with PBS-0.1% Tween 20, 100 μl/well of TMB+ Substrate-Chromogen (DAKOCytomation, CA, USA) was added for a maximum of 30 minutes. Reaction was stopped with 1N HCl. Color developed was determined by an ELISA reader at 450 nm.

[2] = target: T1, glucose-regulated protein (GRP78); experiment: endothelial cells, normoxia, peptide at 0.01, 0.1 or 1 ng/ml for 2 hours, then competitor biotinylated ADOPep1 at 2 ug/ml, HRP-streptavidin
Procedure: Endothelial cells were incubated for 2 hours under normoxia conditions in the presence of increasing concentrations (0.01, 0.1 or 1 ng/ml) of peptides having the amino acid sequences corresponding to Motif A (HWRRP; SEQ ID NO:7), Motif B (HWRRA; SEQ ID NO:8), Motif C (AHLLP; SEQ ID NO:6) or non-biotinylated ADOPep1 (SEQ ID NO:2) and then were incubated for 1 hour with biotinylated ADOPep1 (2 μg/ml) and the binding of biotinylated ADOPep1 to endothelial cells was determined using HRP-streptavidin.

Binder	percent inhibition of binding of anti-GRP78 antibody [1]	binding result [2]
ENFLHWRRAHLL [ADOPep2]	≤ 50%	
HWRRA (also called peptide motif B) [Motif B peptide (HWRRA)]		binds
B1	≤ 50%	
AVTLENFLHWRR [ADOPep3]	≤ 50%	
